B1: baculoviral human GST-MLK7KD (protein)
chain: PANYVAPCRPAASPAPPPSRPSSPVHVAFERLELKELIGAGGFGQVYRATWQGQEVAVKAARQDPEQDAAAAAESVRREARLFAMLRHPNIIELRGVCLQQPHLCLVLEFARGGALNRALAAANAAPDPRAPGPRRARRIPPHVLVNWAVQIARGMLYLHEEAFVPILHRDLKSSNILLLEKIEHDDICNKTLKITDFGLAREWHRTTKMSTAGTYAWMAPEVIKSSLFSKGSDIWSYGVLLWELLTGEVPYRGIDGLAVAYGVAVNKLTLPIPSTCPEPFAKLMKECWQQDPHIRPSFALILEQLTAIEGAVMTEMPQESFHS
B2: baculoviral GST-MLK3KD (protein)
chain: LRLEEVIGIGGFGKVYRGSWRGELVAVKAARQDPDEDISVTAESVRQEARLFAMLAHPNIIALKAVCLEEPNLCLVMEYAAGGPLSRALAGRRVPPHVLVNWAVQIARGMHYLHCEALVPVIHRDLKSNNILLLQPIESDDMEHKTLKITDFGLAREWHKTTQMSAAGTYAWMAPEVIKASTFSKGSDVWSFGVLLWELLTGEVPYRGIDCLAVAYGVAVNKLTLPIPSTCPEPFAQLMADCWAQDPHRRPDFASILQQLEAL
B3: inactivated MKK4 (protein)
chain: MAAPSPSGGGGSGGGSGSGTPGPVGSPAPGHPAVSSMQGKRKALKLNFANPPFKSTARFTLNPNPTGVQNPHIERLRTHSIESSGKLKISPEQHWDFTAEDLKDLGEIGRGAYGSVNKMVHKPSGQIMAVKRIRSTVDEKEQKQLLMDLDVVMRSSDCPYIVQFYGALFREGDCWICMELMSTSFDKFYKYVYSVLDDVIPEEILGKITLATVKALNHLKENLKIIHRDIKPSNILLDRSGNIKLCDFGISGQLVDSIAKTRDAGCRPYMAPERIDPSASRQGYDVRSDVWSLGITLYELATGRFPYPKWNSVFDQLTQVVKGDPPQLSNSEEREFSPSFINFVNLCLTKDESKRPKYKELLKHPFILMYEERAVEVACYVCKILDQMPATPSSPMYVD

How the values were obtained:
[1] = target: GST-MKK4(K113A) [GST: P08515]
[2] = target: GST-MKK7β1(K149A), O14733
inactivated MKK4, P45985 = target: T1, inactivated MKK4, P45985
T1 chain: B3 chain

[3] = target: myelin basic protein (UBI #13-104)

Protein | phosphorylation of substrate coated on the plate (fluorescence units, ELISA-based assay with phospho-threonine antibody, time-resolved fluorescence) [1] | specific activity, ratio against GST-MLK7KD/LZ (ELISA-based phosphorylation assay) [1] | phosphorylation of substrate coated on the plate (fluorescence units, ELISA-based assay with phospho-threonine antibody, time-resolved fluorescence) [2] | specific activity, ratio against GST-MLK7KD/LZ (ELISA-based phosphorylation assay) [2] | in vitro kinase cascade: phosphorylation/activation of MKK4, read as phosphorylated GST-JNK1β1(K55A) (phospho-specific JNK antibody, fluorescence) (inactivated MKK4, P45985) | phosphorylation of myelin basic protein (radioactive counts, Multiscreen TCA in-plate assay) [3] | phosphorylation of substrate coated on the plate (ELISA-based assay, time-resolved fluorescence) [1] | phosphorylation of substrate coated on the plate (ELISA-based assay, time-resolved fluorescence) [2] | phosphorylation of GST-JNK1β1(K55A) by activated MKK4 (phospho-specific JNK antibody, fluorescence) (GST-JNK1β1(K55A), P45983)
B1 | both forms of baculoviral GST-MLK7 catalyzed the phosphorylation of the two MKK protein substrates, GST-MKK4(K113A) and GST-MKK7(K149A) | GST-MLK7KD displaying about 2× higher activity than GST-MLK7KD/LZ | both forms of baculoviral GST-MLK7 catalyzed the phosphorylation of the two MKK protein substrates, GST-MKK4(K113A) and GST-MKK7(K149A) | GST-MLK7KD displaying about 2× higher activity than GST-MLK7KD/LZ | both GST-MLK7KD and GST-MLK7KD/LZ were able to phosphorylate MKK4 and as a consequence of this phosphorylation event, MKK4 was activated | Both GST-MLK7KD and GST-MLK7KD/LZ were able to phosphorylate myelin basic protein |  |  | 
B2 |  |  |  |  |  | Baculoviral GST-MLK3KD was used as the control enzyme in this analysis to show phosphorylation of myelin basic protein by a member of the mixed lineage kinase family | both GST-MLK7 forms were less active than GST-MLK3KD (control enzyme) | both GST-MLK7 forms were less active than GST-MLK3KD (control enzyme) | 
B3 |  |  |  |  |  |  |  |  | MKK4 was activated and was able to phosphorylate its protein substrate GST-JNK1β1(K55A)

From patent US20040185460
